± gives the uncertainty stated by the source.
B1: 1-phosphatidylinositol 4,5-bisphosphate phosphodiesterase gamma-2, residues 772 to 827; numbered along this chain, P16885 (parent)
chain: RTVKALYDYKAKRSDELSFCRGALIHNVSKEPGGWWKGDYGTRIQQYFPSNYVEDI

Variants of: B1
Test: abundance fitness (aPCA) (normalised: wild type 0, dead -1); higher = more abundant; growth selection in yeast, the domain comes from the species named
Conditions: Homo sapiens

RTVKALYDYKAKRDDELSFCRGALIHNVSKEPGGWWKGDYGTRIQQYFPSNYVEDI [S14D] and RTVKALYDYKAKREDELSFCRGALIHNVSKEPGGWWKGDYGTRIQQYFPSNYVEDI [S14E] are within error of each other in abundance fitness: -0.053 ± 0.11 for the first, -0.206 ± 0.095 for the second.

RTVKALYDYKAKRFDELSFCRGALIHNVSKEPGGWWKGDYGTRIQQYFPSNYVEDI [S14F] and RTVKALYDYKAKRGDELSFCRGALIHNVSKEPGGWWKGDYGTRIQQYFPSNYVEDI [S14G] are within error of each other in abundance fitness: 0.024 ± 0.16 for the first, -0.007 ± 0.068 for the second.

RTVKALYDYKAKRHDELSFCRGALIHNVSKEPGGWWKGDYGTRIQQYFPSNYVEDI [S14H] and RTVKALYDYKAKRIDELSFCRGALIHNVSKEPGGWWKGDYGTRIQQYFPSNYVEDI [S14I] are within error of each other in abundance fitness: -0.107 ± 0.18 for the first, 0.031 ± 0.14 for the second.

RTVKALYDYKAKRKDELSFCRGALIHNVSKEPGGWWKGDYGTRIQQYFPSNYVEDI [S14K] and RTVKALYDYKAKRLDELSFCRGALIHNVSKEPGGWWKGDYGTRIQQYFPSNYVEDI [S14L] are within error of each other in abundance fitness: -0.172 ± 0.17 for the first, -0.167 ± 0.072 for the second.

Compared with RTVKALYDYKAKRMDELSFCRGALIHNVSKEPGGWWKGDYGTRIQQYFPSNYVEDI [S14M], RTVKALYDYKAKRNDELSFCRGALIHNVSKEPGGWWKGDYGTRIQQYFPSNYVEDI [S14N] is lower in abundance fitness: 0.024 ± 0.06 for the first, -0.316 ± 0.21 for the second.

First: RTVKALYDYKAKRPDELSFCRGALIHNVSKEPGGWWKGDYGTRIQQYFPSNYVEDI [S14P]
Second: RTVKALYDYKAKRQDELSFCRGALIHNVSKEPGGWWKGDYGTRIQQYFPSNYVEDI [S14Q]
The abundance fitness of the first is lower: -0.439 ± 0.21 for the first, 0.037 ± 0.075 for the second.

First: RTVKALYDYKAKRRDELSFCRGALIHNVSKEPGGWWKGDYGTRIQQYFPSNYVEDI [S14R]
Second: RTVKALYDYKAKRTDELSFCRGALIHNVSKEPGGWWKGDYGTRIQQYFPSNYVEDI [S14T]
The abundance fitness of the first is higher: 0.026 ± 0.056 for the first, -0.291 ± 0.13 for the second.

Compared with RTVKALYDYKAKRVDELSFCRGALIHNVSKEPGGWWKGDYGTRIQQYFPSNYVEDI [S14V], RTVKALYDYKAKRWDELSFCRGALIHNVSKEPGGWWKGDYGTRIQQYFPSNYVEDI [S14W] is lower in abundance fitness: -0.16 ± 0.064 for the first, -0.334 ± 0.09 for the second.

RTVKALYDYKAKRYDELSFCRGALIHNVSKEPGGWWKGDYGTRIQQYFPSNYVEDI [S14Y] and RTVKALYDYKAKRSAELSFCRGALIHNVSKEPGGWWKGDYGTRIQQYFPSNYVEDI [D15A] are within error of each other in abundance fitness: -0.304 ± 0.19 for the first, -0.182 ± 0.076 for the second.

RTVKALYDYKAKRSCELSFCRGALIHNVSKEPGGWWKGDYGTRIQQYFPSNYVEDI [D15C] and RTVKALYDYKAKRSEELSFCRGALIHNVSKEPGGWWKGDYGTRIQQYFPSNYVEDI [D15E] are within error of each other in abundance fitness: -0.165 ± 0.16 for the first, 0.018 ± 0.067 for the second.

RTVKALYDYKAKRSFELSFCRGALIHNVSKEPGGWWKGDYGTRIQQYFPSNYVEDI [D15F] and RTVKALYDYKAKRSGELSFCRGALIHNVSKEPGGWWKGDYGTRIQQYFPSNYVEDI [D15G] are within error of each other in abundance fitness: -0.124 ± 0.14 for the first, -0.047 ± 0.078 for the second.

RTVKALYDYKAKRSHELSFCRGALIHNVSKEPGGWWKGDYGTRIQQYFPSNYVEDI [D15H] and RTVKALYDYKAKRSIELSFCRGALIHNVSKEPGGWWKGDYGTRIQQYFPSNYVEDI [D15I] are within error of each other in abundance fitness: -0.362 ± 0.33 for the first, -0.027 ± 0.19 for the second.

RTVKALYDYKAKRSKELSFCRGALIHNVSKEPGGWWKGDYGTRIQQYFPSNYVEDI [D15K] and RTVKALYDYKAKRSLELSFCRGALIHNVSKEPGGWWKGDYGTRIQQYFPSNYVEDI [D15L] are within error of each other in abundance fitness: -0.503 ± 0.14 for the first, -0.37 ± 0.069 for the second.

Compared with RTVKALYDYKAKRSMELSFCRGALIHNVSKEPGGWWKGDYGTRIQQYFPSNYVEDI [D15M], RTVKALYDYKAKRSNELSFCRGALIHNVSKEPGGWWKGDYGTRIQQYFPSNYVEDI [D15N] is lower in abundance fitness: 0.185 ± 0.11 for the first, -0.048 ± 0.087 for the second.

Compared with RTVKALYDYKAKRSPELSFCRGALIHNVSKEPGGWWKGDYGTRIQQYFPSNYVEDI [D15P], RTVKALYDYKAKRSQELSFCRGALIHNVSKEPGGWWKGDYGTRIQQYFPSNYVEDI [D15Q] is higher in abundance fitness: -0.879 ± 0.15 for the first, -0.214 ± 0.18 for the second.

Going from RTVKALYDYKAKRSRELSFCRGALIHNVSKEPGGWWKGDYGTRIQQYFPSNYVEDI [D15R] to RTVKALYDYKAKRSSELSFCRGALIHNVSKEPGGWWKGDYGTRIQQYFPSNYVEDI [D15S], the abundance fitness rises from -0.427 ± 0.1 to 0.006 ± 0.058.

First: RTVKALYDYKAKRSTELSFCRGALIHNVSKEPGGWWKGDYGTRIQQYFPSNYVEDI [D15T]
Second: RTVKALYDYKAKRSVELSFCRGALIHNVSKEPGGWWKGDYGTRIQQYFPSNYVEDI [D15V]
The abundance fitness of the first is higher: 0.178 ± 0.1 for the first, -0.041 ± 0.042 for the second.

RTVKALYDYKAKRSYELSFCRGALIHNVSKEPGGWWKGDYGTRIQQYFPSNYVEDI [D15Y] and RTVKALYDYKAKRSDALSFCRGALIHNVSKEPGGWWKGDYGTRIQQYFPSNYVEDI [E16A] are within error of each other in abundance fitness: -0.254 ± 0.15 for the first, -0.456 ± 0.092 for the second.

RTVKALYDYKAKRSDGLSFCRGALIHNVSKEPGGWWKGDYGTRIQQYFPSNYVEDI [E16G] and RTVKALYDYKAKRSDHLSFCRGALIHNVSKEPGGWWKGDYGTRIQQYFPSNYVEDI [E16H] are within error of each other in abundance fitness: -0.354 ± 0.069 for the first, -0.201 ± 0.38 for the second.

Compared with RTVKALYDYKAKRSDKLSFCRGALIHNVSKEPGGWWKGDYGTRIQQYFPSNYVEDI [E16K], RTVKALYDYKAKRSDLLSFCRGALIHNVSKEPGGWWKGDYGTRIQQYFPSNYVEDI [E16L] is higher in abundance fitness: -0.822 ± 0.13 for the first, -0.486 ± 0.14 for the second.

First: RTVKALYDYKAKRSDMLSFCRGALIHNVSKEPGGWWKGDYGTRIQQYFPSNYVEDI [E16M]
Second: RTVKALYDYKAKRSDQLSFCRGALIHNVSKEPGGWWKGDYGTRIQQYFPSNYVEDI [E16Q]
The abundance fitness of the first is lower: -0.633 ± 0.096 for the first, -0.168 ± 0.13 for the second.

RTVKALYDYKAKRSDRLSFCRGALIHNVSKEPGGWWKGDYGTRIQQYFPSNYVEDI [E16R] and RTVKALYDYKAKRSDSLSFCRGALIHNVSKEPGGWWKGDYGTRIQQYFPSNYVEDI [E16S] are within error of each other in abundance fitness: -0.528 ± 0.097 for the first, -0.618 ± 0.21 for the second.

RTVKALYDYKAKRSDTLSFCRGALIHNVSKEPGGWWKGDYGTRIQQYFPSNYVEDI [E16T] and RTVKALYDYKAKRSDVLSFCRGALIHNVSKEPGGWWKGDYGTRIQQYFPSNYVEDI [E16V] are within error of each other in abundance fitness: -0.442 ± 0.2 for the first, -0.612 ± 0.074 for the second.

For RTVKALYDYKAKRSDWLSFCRGALIHNVSKEPGGWWKGDYGTRIQQYFPSNYVEDI [E16W], the abundance fitness was -1.02 ± 0.47.

— the Human Domainome abundance scans (Beltran et al. 2025)
